This experiment deals with His6-tagged Casp8p41 protein. Briefly: SPR; Casp8p41 immobilised on a CM5 chip (6000-7000 RU); BCL2 or phospho-S70-BCL2 flowed over; 25°C; 150 mM NaCl, 0.05 mM EDTA, 0.005% Polysorbate 20, 10 mM Hepes pH 7.4; steady state affinity fit, 1:1 model; Biacore T200. Background: SPR reads the build-up and loss of mass on a sensor chip optically.

A word on the Kd: it is the equilibrium constant for the complex coming apart. Lower therefore signals a tighter complex. The substance BCL2ΔTM-His6 (domain or fragment) had a dissociation constant Kd of 260 nM.

For the substance phospho-S70-BCL2 (domain or fragment), the dissociation constant Kd came out at 40 nM.
